Test results taken from patent publication US20210317211A1 (published 2021).

Experiments:
[1] = biological target: T1, human TREM2 over-expressed on Expi 293 cells (human, UniProt Q9NZC2 19-230); experiment: flow cytometry on Expi 293 cells over-expressing human TREM2; Alexa Fluor 647 secondary antibody
T1 construct: also called Expi-hTREM2; hTREM2
T1 sequence: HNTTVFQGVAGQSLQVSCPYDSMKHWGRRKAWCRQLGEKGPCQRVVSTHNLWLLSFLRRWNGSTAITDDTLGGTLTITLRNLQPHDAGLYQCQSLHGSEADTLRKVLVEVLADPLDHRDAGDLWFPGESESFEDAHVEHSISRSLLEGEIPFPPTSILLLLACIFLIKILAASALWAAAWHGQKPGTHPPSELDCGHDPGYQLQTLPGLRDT
Procedure: (§1) 100,000 to 500,000 Expi 293 parental cells or Expi 293 cells over-expressing human or mouse TREM2 were plated in […] well plates and dead cells were stained with Zombie Near Infrared (Biolegend). Titrations of indicated unconjugated antibodies were incubated with these cells within a range of 0 ug/ml to 10 ug/ml in a 1:3 dilution range across 8-10 points. Dependent on their isotype (higG1 or mIgG2a), these primary unconjugated antibodies were detected with Alexa Fluor 647 conjugated anti-human Fc or anti-mouse Fc secondary antibodies (Jackson Immunoresearch). Alexa Fluor 647 signal was measured by flow cytometry (BD Fortessa X-14, BD Biosciences). EC50 values were calculated by curve fitting signal generated from antibodies binding to over-expressing cells over background fluorescence generated from HEK293 parental cells in Graphpad Prism (Graphpad Software).

[2] = biological target: T2, mouse TREM2 over-expressed on Expi 293 cells (mouse, UniProt Q99NH8 19-227); experiment: flow cytometry on Expi 293 cells over-expressing mouse TREM2; Alexa Fluor 647 secondary antibody
T2 construct: also called Expi-mTREM2; mTREM2
T2 sequence: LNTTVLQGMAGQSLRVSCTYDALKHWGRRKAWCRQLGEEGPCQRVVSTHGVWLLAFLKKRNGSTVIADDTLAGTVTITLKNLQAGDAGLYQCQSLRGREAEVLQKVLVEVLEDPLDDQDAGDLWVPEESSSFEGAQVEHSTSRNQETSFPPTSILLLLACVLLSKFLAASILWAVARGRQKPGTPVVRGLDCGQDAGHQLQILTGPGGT
Procedure: as §1

B1: Rat IgG2B Clone #237920 (R&D Systems Cat #MAB17291) (antibody, V domains shown)
VH: EVQLVESGGGLVQPGRSLKLSCAASGFTFSNYYMAWVRQAPTKGLEWVASLTNSGGSTYYRDSVKGRFTLSRDNAKSTLYLQMDSLRSEDTATYYCTREWAGSGYFDYWGQGVMVTVSS
VL: NIVMTQSPKSMSLSVGDRVTMNCKASQNVGNNLAWYQQKPGQSPKLLLYYTSNRFTGVPDRFTGGGYGTDFTLTINSVQAEDAAFYYCQRIYNSPWTFGGGTKLELKR
notes: also called mAb 237920
An EC50 [1] of 600 pM and an EC50 [2] of 900 pM were found for B1 in this work.
